{"source": "paper PMC9402439", "about": "“Reconstitution of a telomeric replicon organized by CST”", "binders": {"B1": {"name": "9xTEL (ssDNA)", "DNA": "TTAGGGTTAGGGTTAGGGTTAGGGTTAGGGTTAGGGTTAGGGTTAGGGTTAGGG"}}, "target": "Polα-primase, recombinant (Insect PP) (Homo sapiens, UniProt P09884;Q14181;P49642;P49643 1-1462;1-598;1-420;1-509)", "sequence (P09884 whole entry, chain 1 of 4)": "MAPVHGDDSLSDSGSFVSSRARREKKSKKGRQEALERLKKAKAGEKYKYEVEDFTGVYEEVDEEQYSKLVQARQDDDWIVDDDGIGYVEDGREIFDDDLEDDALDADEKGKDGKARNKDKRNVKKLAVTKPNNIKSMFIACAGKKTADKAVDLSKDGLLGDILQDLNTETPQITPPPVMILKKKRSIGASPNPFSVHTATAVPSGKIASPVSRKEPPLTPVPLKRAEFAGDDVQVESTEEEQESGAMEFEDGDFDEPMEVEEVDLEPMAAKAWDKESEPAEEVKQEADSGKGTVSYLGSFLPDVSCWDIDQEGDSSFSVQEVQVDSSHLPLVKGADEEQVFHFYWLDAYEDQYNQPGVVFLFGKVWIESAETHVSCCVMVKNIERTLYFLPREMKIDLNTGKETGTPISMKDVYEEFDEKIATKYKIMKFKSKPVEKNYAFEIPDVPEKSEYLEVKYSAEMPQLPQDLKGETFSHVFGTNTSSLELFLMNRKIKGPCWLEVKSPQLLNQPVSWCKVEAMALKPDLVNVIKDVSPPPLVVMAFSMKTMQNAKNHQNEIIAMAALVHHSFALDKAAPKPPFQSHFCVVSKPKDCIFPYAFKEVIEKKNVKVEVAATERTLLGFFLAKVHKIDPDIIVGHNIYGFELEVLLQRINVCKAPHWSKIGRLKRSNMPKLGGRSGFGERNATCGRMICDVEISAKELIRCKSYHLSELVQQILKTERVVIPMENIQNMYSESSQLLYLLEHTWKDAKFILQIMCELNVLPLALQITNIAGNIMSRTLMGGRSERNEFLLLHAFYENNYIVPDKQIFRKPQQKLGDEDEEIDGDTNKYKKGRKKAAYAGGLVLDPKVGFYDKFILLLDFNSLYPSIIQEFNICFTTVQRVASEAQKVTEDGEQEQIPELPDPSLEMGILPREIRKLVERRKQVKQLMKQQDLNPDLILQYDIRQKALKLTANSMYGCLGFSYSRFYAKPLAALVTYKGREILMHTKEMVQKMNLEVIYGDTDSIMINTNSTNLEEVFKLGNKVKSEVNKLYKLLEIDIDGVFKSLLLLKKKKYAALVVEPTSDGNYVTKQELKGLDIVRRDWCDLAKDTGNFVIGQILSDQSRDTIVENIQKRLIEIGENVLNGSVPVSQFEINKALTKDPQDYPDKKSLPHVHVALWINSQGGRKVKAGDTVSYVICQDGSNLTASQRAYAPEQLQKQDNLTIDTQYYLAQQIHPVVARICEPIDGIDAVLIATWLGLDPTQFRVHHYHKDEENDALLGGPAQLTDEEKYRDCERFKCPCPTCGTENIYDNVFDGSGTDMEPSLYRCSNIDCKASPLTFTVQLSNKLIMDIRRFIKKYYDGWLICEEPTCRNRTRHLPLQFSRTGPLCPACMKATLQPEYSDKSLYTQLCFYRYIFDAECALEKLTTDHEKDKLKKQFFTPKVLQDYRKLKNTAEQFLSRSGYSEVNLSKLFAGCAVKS", "sequence (Q14181 whole entry, chain 2 of 4)": "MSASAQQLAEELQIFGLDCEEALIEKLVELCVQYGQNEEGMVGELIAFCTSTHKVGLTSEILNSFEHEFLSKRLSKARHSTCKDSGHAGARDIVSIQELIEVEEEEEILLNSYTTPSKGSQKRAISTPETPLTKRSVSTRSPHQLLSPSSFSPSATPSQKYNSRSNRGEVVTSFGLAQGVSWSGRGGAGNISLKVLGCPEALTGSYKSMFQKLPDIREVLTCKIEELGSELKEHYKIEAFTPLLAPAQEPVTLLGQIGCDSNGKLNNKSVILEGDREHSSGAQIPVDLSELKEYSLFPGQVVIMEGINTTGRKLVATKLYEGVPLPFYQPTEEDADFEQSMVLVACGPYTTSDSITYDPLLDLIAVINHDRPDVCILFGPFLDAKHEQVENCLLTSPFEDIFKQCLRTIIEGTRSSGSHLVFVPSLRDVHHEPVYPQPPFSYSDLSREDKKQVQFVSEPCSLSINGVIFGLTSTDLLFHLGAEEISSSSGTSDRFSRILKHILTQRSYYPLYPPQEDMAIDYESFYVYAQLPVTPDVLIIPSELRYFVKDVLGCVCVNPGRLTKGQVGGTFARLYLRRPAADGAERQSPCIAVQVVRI", "sequence (P49642 whole entry, chain 3 of 4)": "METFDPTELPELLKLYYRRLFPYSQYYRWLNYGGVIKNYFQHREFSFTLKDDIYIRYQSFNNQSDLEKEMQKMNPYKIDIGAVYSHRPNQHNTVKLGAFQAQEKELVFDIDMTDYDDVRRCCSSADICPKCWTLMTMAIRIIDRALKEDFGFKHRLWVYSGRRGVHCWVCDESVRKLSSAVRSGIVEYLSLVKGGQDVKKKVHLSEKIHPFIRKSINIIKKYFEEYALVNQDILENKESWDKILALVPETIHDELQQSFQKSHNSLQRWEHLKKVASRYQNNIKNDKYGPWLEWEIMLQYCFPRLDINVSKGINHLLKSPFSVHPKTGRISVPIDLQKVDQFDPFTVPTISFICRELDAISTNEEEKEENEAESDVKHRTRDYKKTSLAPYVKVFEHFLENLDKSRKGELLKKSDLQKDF", "sequence (P49643 whole entry, chain 4 of 4)": "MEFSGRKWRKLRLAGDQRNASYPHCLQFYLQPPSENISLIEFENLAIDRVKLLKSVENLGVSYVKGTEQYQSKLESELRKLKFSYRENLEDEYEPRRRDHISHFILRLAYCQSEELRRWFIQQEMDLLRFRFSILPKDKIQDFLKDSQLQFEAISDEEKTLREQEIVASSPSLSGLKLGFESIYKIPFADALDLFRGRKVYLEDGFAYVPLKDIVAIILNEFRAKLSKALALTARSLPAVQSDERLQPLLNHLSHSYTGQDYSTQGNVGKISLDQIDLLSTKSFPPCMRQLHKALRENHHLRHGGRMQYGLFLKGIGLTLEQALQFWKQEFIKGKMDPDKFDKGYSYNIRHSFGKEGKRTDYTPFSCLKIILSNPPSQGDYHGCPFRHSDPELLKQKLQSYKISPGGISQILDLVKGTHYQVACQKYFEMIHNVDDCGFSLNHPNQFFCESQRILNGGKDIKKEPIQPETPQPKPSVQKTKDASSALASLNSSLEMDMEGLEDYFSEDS", "assay": "EMSA; Kd,app similar to CST-Polα-primase, value only in figure; complex dissociates during electrophoresis; CST EMSA: 20 mM HEPES-NaOH pH 8.0, 150 mM NaCl, 2 mM MgCl2, 0.2 mM EGTA, 0.1% NP-40, 10% glycerol, 1 mM DTT, 2 h on ice, 0.7% agarose 1x TBE gel at 4 °C; POT1-TPP1N EMSA: C-strand synthesis buffer, 30 min at 30 °C", "conditions": "protein: recombinant; copies: 1;1;1;1; label: 5'-32P; folds into G-quadruplex in KCl and NaCl, not LiCl"}
{"binder": "B1", "values": [{"measurement": "binding result", "result": "binds"}]}
